Key:
[1] = molecular target: cynomolgus PD-L1 Fc-fusion protein (cynomolgus) (UniProt G7PSE7); experiment: SPR, cyno PD-L1-Fc immobilised, antibody analyte
[2] = molecular target: cynomolgus PD-L1 overexpressing stable cell line (cynomolgus) (UniProt G7PSE7); experiment: FACS, cynomolgus PD-L1 cell line
Sequence of cynomolgus PD-L1 overexpressing stable cell line (cynomolgus) (G7PSE7 entry or part of it limits assumed): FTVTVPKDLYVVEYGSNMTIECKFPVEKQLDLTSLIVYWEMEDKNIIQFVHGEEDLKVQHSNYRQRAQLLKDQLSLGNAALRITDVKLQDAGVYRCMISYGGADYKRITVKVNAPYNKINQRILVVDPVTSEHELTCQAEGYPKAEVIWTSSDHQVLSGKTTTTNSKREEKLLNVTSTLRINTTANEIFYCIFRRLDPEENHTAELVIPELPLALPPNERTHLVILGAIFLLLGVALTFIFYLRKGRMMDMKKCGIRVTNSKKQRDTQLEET

Sequence of Durvalumab (antibody) (VH): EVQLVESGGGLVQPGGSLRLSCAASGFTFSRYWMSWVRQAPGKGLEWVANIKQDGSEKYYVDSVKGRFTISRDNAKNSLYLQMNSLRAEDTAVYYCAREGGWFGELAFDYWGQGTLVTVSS
Sequence of Durvalumab (antibody) (VL): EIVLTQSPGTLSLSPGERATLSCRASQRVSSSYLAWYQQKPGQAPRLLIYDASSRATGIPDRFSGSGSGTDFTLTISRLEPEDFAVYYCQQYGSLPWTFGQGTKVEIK
Sequence of cynomolgus PD-L1 Fc-fusion protein (cynomolgus) (G7PSE7 entry or part of it limits assumed): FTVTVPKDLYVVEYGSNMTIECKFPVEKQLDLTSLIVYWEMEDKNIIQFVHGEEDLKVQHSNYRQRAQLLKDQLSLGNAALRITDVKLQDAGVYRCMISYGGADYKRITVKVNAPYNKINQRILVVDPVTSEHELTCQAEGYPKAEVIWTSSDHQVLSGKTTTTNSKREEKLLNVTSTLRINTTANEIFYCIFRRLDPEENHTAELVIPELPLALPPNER

Kd [1]: 1.1 nM | EC50 [2]: 3.07 nM | Top (best-fit value) [2]: 8220
Substance: Durvalumab (antibody)
